Source: article PMC4132065 (2014)

B1: LexA BD-Pxa2_NBD-CT [S. cerevisiae] / Gal4 AD-Pxa1_NBD-CT [S. cerevisiae] (parent complex)
chain 1: GNDMTADFITNRRLLVTASSSIGRFVELKRNIQQLRGIRLRLNKFNDLLDANKGDDEKEPRDERCIVEYDDSRIKFENIPLITPANQVLVPELSFDLKHGNHLLIIGPNGCGKSSLFRILGGLWPIRATPNKNHQSKLIMPRRTVDRDCAIFYLPQRPYMGNRSTFREQIIYPDSIEQFKERYHNDYDLGDADLIKILQLLDLEDLVTENMSLLLAQRTSKNDSQQLSTEDNQSPCAIKVRDAFSIVRNWSEELTIGVQQRLAMARMYYHKPKFAVLDECTSAVAPEMEQRMYENAQNFGISLISVCHRTSLWHFHNYLLKFDGKGGYQFGPFNPKERLCNEEKLLELNAILDQQVPLWERKLKDLTIAKESNIIRKSETNLNLFEKIEDPKTSKSNALFNANKGQRITSPTGQETSKRLPLFSQPSSSASSNLLRNNKSLNKKVKTKKEEGKER
chain 2: SRLMHSIKDISQLTGYTNRIFTLLSVLHRVHSLNFNYGAVPSILSIRTEDASRNSNLLPTTDNSQDAIRGTIQRNFNGIRLENIDVIIPSVRASEGIKLINKLTFQIPLHIDPITSKSNSIQDLSKANDIKLPFLQGSGSSLLILGPNGCGKSSIQRIIAEIWPVYNKNGLLSIPSENNIFFIPQKPYFSRGGTLRDQIIYPMSSDEFFDRGFRDKELVQILVEVKLDYLLKRGVGLTYLDAIADWKDLLSGGEKQRVNFARIMFHKPLYVVLDEATNAISVDMEDYLFNLLKRYRFNFISISQRPTLIKYHEMLLEIGENRDGKWQLQAVGTDEAITSIDNEIEELERKLERVKGWEDERTKLREKLEII
B2: LexA BD-Pxa2_NBD-CT [S. cerevisiae] / Gal4 AD-Pxa1_NBD [S. cerevisiae] (parent complex)
chain 1: B1 chain 1
chain 2: SRLMHSIKDISQLTGYTNRIFTLLSVLHRVHSLNFNYGAVPSILSIRTEDASRNSNLLPTTDNSQDAIRGTIQRNFNGIRLENIDVIIPSVRASEGIKLINKLTFQIPLHIDPITSKSNSIQDLSKANDIKLPFLQGSGSSLLILGPNGCGKSSIQRIIAEIWPVYNKNGLLSIPSENNIFFIPQKPYFSRGGTLRDQIIYPMSSDEFFDRGFRDKELVQILVEVKLDYLLKRGVGLTYLDAIADWKDLLSGGEKQRVNFARIMFHKPLYVVLDE

Variants of: B1
Experiment: yeast two-hybrid, quantified with Yeast β-Galactosidase Assay Kit (Thermo); n = 3; parent: 190; read off a plot

Variant	response
chain 1 F333A	~69
chain 1 Y328L	~38

Variants of: B2
Experiment: yeast two-hybrid, quantified with Yeast β-Galactosidase Assay Kit (Thermo); n = 3; parent: 185; read off a plot

Variant	response
chain 1 F333A	~41
chain 1 Y328L	~17
